Source: the supplement of paper PMC10126150
± gives the standard deviation of the averaged measurements.

Test system: ATP
Assay: switch fluorescence ratio, 500 uM ATP over buffer (Cy3 cluster intensity, sum of 5 cycles each) (fold (ratio)); higher = stronger signal-on switching upon ATP binding; sequences stand for … in TCGTCGGCAGCGTCAGATGTGTATAAGAGACAGTTTTTTTTTTTTTTTTTTTTTTTTT…TC
Details: aptamer strand: ATP DNA aptamer (quencher-CACCTGGGGGAGTATTGCGGAGGAAGG + anchor), 100 nM annealed; ATP concentration: 500 uM
Method in brief: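 Exposure to 500 uM ATP lasted 15 min at 22 °C before imaging, and a selection-buffer image was taken beforehand, for Cy3-labelled switching-strand clusters on a modified Illumina MiSeq flow-cell annealed to 100 nM quencher-labelled ATP aptamer. Five buffer/ATP cycles were run with NaOH stripping and re-annealing between them. The fluorescence ratio per cluster is summed target-cycle over summed buffer-cycle Cy3 intensity, averaged per switch-domain sequence. Clusters outside 100-1000 RFU were excluded.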

Sequence | switch fluorescence ratio
AAATCATTGG | 1.01 ± 0.026
ATTTTCTTCA | 1.02 ± 0.016
CATAAGATCC | 0.994 ± 0.025
AATGTAAGGT | 1.012 ± 0.006
TAATAATCTA | 1.01 ± 0.027
GGGAATCCTT | 1.03 ± 0.0018
TTATAATTGT | 0.9966 ± 0.0022
GCGCTCCGGG | 1.09 ± 0.072
TGATTCGAGC | 1.003 ± 0.0058
CGGCAGTATG | 1.02 ± 0.011
CGGGCATGGG | 1.01 ± 0.029
TTGGTCGCGG | 0.97078 ± 5.7e-05
TCGCGGAGGG | 0.981 ± 0.019
GCTAGGAACT | 0.979 ± 0.019
TTGGGGGTGA | 1 ± 0.042
AAGCCAAGTA | 1 ± 0.023
GGATTTATGA | 1.002 ± 0.0092
TGCATTAATG | 0.989 ± 0.012
TGGCTGACAG | 0.992 ± 0.023
TAAAATGTTC | 0.988 ± 0.048
AGCTTGATGT | 1.02 ± 0.053
GCGTATAGGA | 1.01 ± 0.035
CGGGTAAGTA | 1.03 ± 0.097
TTTGGCTTTT | 1.06 ± 0.18
TTATAACTTT | 1.02 ± 0.028

Sequence | switch fluorescence ratio
TAAGTGAGGG | 0.981 ± 0.018
TCCCCCTGGT | 1.37 ± 0.069
GGGGAGGGTC | 1.016 ± 0.0055
TTTATACCGT | 1.026 ± 0.0028
AGAAGGGTGG | 0.992 ± 0.043
GGTCTTAGTT | 0.987 ± 0.035
TTAGTTAAAG | 1 ± 0.014
AAGGTTATCT | 1.005 ± 0.0068
GCATGATGGA | 0.975 ± 0.022
CGGCATAGAT | 1.04 ± 0.029
AATATGAGGG | 1.01 ± 0.042
ACTGAGGGCG | 1.02 ± 0.025
AAGGGCCAGC | 0.9896 ± 0.0042
ACCCTGGAAC | 1.045 ± 0.0039
AAGTCATTTT | 1.026 ± 0.0017
TGATGTGGGA | 1.027 ± 0.0047
TGGAATTCGG | 1.02 ± 0.0061
AGCAGGTTGT | 1.05 ± 0.015
AGCAAAAGAA | 1.12 ± 0.15
AGTATATAGT | 1.004 ± 0.0073
TAATACCAAG | 1 ± 0.029
TGTTTTTAAC | 0.983 ± 0.015
ATGTAAGTGC | 0.967 ± 0.064
GTTGAACAGT | 1.01 ± 0.065
GCTTTGAATT | 0.985 ± 0.017

Sequence | switch fluorescence ratio
ACAGTTTTTT | 0.98861 ± 1.6e-05
ATTTTGAAGC | 0.991 ± 0.016
GTCACCAGAT | 1.002 ± 0.0077
GGGAAACGAG | 1.04 ± 0.019
TACGGGCGCG | 0.981 ± 0.017
GTGTGAGGAG | 1.05 ± 0.081
GTGGGAGG | 1.02 ± 0.025
GGGGTGTAGC | 0.992 ± 0.042
GGGTGAGGGG | 1.01 ± 0.033
AAGAAGGGAG | 0.982 ± 0.01
GATTGCGGGC | 1.03 ± 0.011
CTGCCAATGG | 1.99 ± 0.053
ACAAGATTGG | 1.01 ± 0.041
CGGGTATTCG | 0.99 ± 0.03
TAAAGATGG | 0.995 ± 0.027
CAACTGGCGG | 0.99 ± 0.017
TATGGGGGCT | 1.04 ± 0.012
TACGAAGGGG | 1.02 ± 0.018
AGGGGATGGC | 0.946 ± 0.017
GTAGTTTTAC | 1.042 ± 0.0071
CGCTTTCTTT | 1.03 ± 0.041
TGGGAAGTGG | 1.04 ± 0.071
GATCATCCTG | 1.008 ± 0.0065
ATGCTAGTTG | 0.98924 ± 0.0007
TTGGTGACGC | 1.01 ± 0.026

Sequence | switch fluorescence ratio
TTCAGTGTTA | 1.017 ± 0.0058
TCGTTAGAAT | 0.948 ± 0.013
TGTGGGATAT | 1.05 ± 0.068
TTAAAGACGT | 1.51 ± 0.7
GTGCGGGCGC | 0.944 ± 0.04
TTCGGGGGT | 0.983 ± 0.024
GGAGAAAAGA | 0.9862 ± 0.0076
ATGTGGGTTT | 0.974 ± 0.021
AGGCTACGTC | 0.9925 ± 0.0061
TCGAAATTTT | 1 ± 0.022
ACAGCTAAAA | 1.02 ± 0.016
ACTTTAATGA | 1.07 ± 0.018
CAGAGTTTTA | 1.02 ± 0.015
GTAGTAAGAT | 1.07 ± 0.064
AAAGGGTAGT | 0.9813 ± 0.0014
CAAGGAATTT | 0.969 ± 0.023
GCTTGCTCAT | 1.018 ± 0.0094
CGGAAACGTG | 1.01 ± 0.028
TTTGGGAAAA | 1.05 ± 0.038
ACGTGTGATG | 0.99 ± 0.024
TTCAGTGGTG | 0.965 ± 0.053
AATTCAGGGG | 1.07 ± 0.069
TTGGAGGTTA | 0.973 ± 0.017
GATCCGGGGG | 0.988 ± 0.043
ACCGTGCTTA | 1.01 ± 0.032
